Common to all, as to experiment: cell-based or functional assay
Assay [1] concerns the target T1, human PDL1 stably expressed on CHO cells (human, UniProt Q9NZQ7 19-290).
Assay [2] deals with T1, human PDL1 stably expressed on CHO cells. This is another data set of the same source.
Assay [3] shares this target. The source holds these as a separate data set.
Assay [4] has the same target. This is another data set of the same source.

T1 sequence (Q9NZQ7 19-290 limits assumed): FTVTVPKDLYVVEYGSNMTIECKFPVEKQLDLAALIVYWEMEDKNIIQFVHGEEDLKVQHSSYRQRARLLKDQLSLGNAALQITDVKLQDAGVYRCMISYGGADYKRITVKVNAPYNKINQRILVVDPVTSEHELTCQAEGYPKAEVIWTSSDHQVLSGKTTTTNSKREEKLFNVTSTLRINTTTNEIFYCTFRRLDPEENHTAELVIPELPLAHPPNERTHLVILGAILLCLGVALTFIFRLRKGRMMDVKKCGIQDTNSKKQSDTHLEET

B1: 10A4 VHH-Fc (chimeric bivalent antibody) (antibody, human IgG1, V domains shown)
VH: QVKLEESGGGLVMAGGSLRLSCAASGGPFMSYAMGWFRQAPGKEREFVAAIRWNGISTFYADSVKGRFTVSRDNGKNMAFLQMNSLKPEDTAVYYCAAAQTIVTVPENYEYHYWGQGTQVTVSS
For B1, the “EC50; NFAT luciferase reporter (RLU), CHO cells with human PDL1 co-incubated with Jurkat cells with human PD1 and NFAT reporter, blocking of PDL1/PD1” value in assay [1] is 0.242 nM. Also, the “EC50; NFAT luciferase reporter (RLU), whole cell PDL1/PD1 blocking assay; printed as 10A4 Parental” value in assay [2] was 3.79 nM. Besides, in assay [3], the “EC50 (read off the curve); luminescence (RLU) of the NFAT reporter, PDL1 Blockade assay (CHO-PDL1) [middle panel]” value (“EC50 (read off the curve) … [middle panel]” below) is about 1 nM.

B2: 2F9 VHH-Fc (antibody, human IgG1, V domains shown)
VH: QVQLVESGGGVVQPGRSLRLSCAASGGPFMSYAMGWFRQAPGKEREFVAAIRWSGISTFYADSVKGRFTISRDNSKNTLYLQMNSLRAEDTAVYYCAAAQTIVTVPENYEFDYWGQGTQVTVSS
Take B2: in assay [3], the “EC50 (read off the curve); luminescence (RLU) of the NFAT reporter, PDL1 Blockade assay (CHO-PDL1) [top panel]” value (“EC50 (read off the curve) … [top panel]” below) is about 2 nM.

B3: 1F6 VHH-Fc (antibody, human IgG1, V domains shown)
VH: QVQLVESGGGVVQPGRSLRLSCAASGGPFMSYAMGWFRQAPGKEREFVAAIRWSGKSTFYADSVKGRFTISRDNSKNTLYLQMNSLRAEDTAVYYCAAAQTIVTVPESYEFDYWGQGTQVTVSS
For B3, the “EC50 (read off the curve) … [top panel]” value in assay [3] is about 2 nM.

B4: 1H2 VHH-Fc (antibody, human IgG1, V domains shown)
VH: QVQLVESGGGVVQPGRSLRLSCAASGGPFMSYAMGWFRQAPGKEREFVAAIRWSGLSTFYADSVKGRFTISRDNSKNTLYLQMNSLRAEDTAVYYCAAAPTIVTVPENYEFDYWGQGTQVTVSS
In the case of B4, the “EC50 (read off the curve) … [top panel]” value in assay [3] is about 2 nM.

B5: 5D8 VHH-Fc (antibody, human IgG1, V domains shown)
VH: QVQLVESGGGVVQPGRSLRLSCAASGGPFMSYAMGWFRQAPGKEREFVAAIRWSGQSTFYADSVKGRFTISRDNSKNTLYLQMNSLRAEDTAVYYCAAAQTIVTVPSNYEFDYWGQGTQVTVSS
As for B5, the “EC50 (read off the curve) … [middle panel]” value in assay [3] was about 2 nM.

B6: Humanized 10A4 GLEF-N2S VHH-Fc (antibody, human IgG1, V domains shown)
VH: EVQLVESGGGLVQPGGSLRLSCAASGGPFMSYAMGWVRQAPGKGLEFVAAIRWSGISTFYADSVKGRFTISRDNSKNTLYLQMNSLRAEDTAVYYCAAAQTIVTVPENYEYHYWGQGTQVTVSS
In the case of B6, the “EC50; NFAT luciferase reporter (RLU), whole cell PDL1/PD1 blocking assay” value in assay [2] amounted to 7.37 nM. Further, in assay [4], the “EC50; NFAT luciferase reporter (RLU), whole cell PDL1/PD1 blocking assay; printed as 10A4 GLEF-N2S” value was found to be 0.824 nM. Besides, in assay [3], the “EC50 (read off the curve); luminescence (RLU) of the NFAT reporter, PDL1 Blockade assay (CHO-PDL1) [bottom panel]” value is about 2 nM.

B7: 5G10 VHH-Fc (antibody, human IgG1, V domains shown)
VH: QVQLVESGGGVVQPGRSLRLSCAASGGPFMSYAMGWFRQAPGKEREFVAAIRWSGASTFYADSVKGRFTISRDNSKNTLYLQMNSLRAEDTAVYYCAAAQTIVTVPENYEFDYWGQGTQVTVSS
In the case of B7, the “EC50 (read off the curve) … [middle panel]” value in assay [3] is about 2 nM.

B8: Humanized 10A4 GLEF VHH-Fc (antibody, human IgG1, V domains shown)
VH: EVQLVESGGGLVQPGGSLRLSCAASGGPFMSYAMGWVRQAPGKGLEFVAAIRWNGISTFYADSVKGRFTISRDNSKNTLYLQMNSLRAEDTAVYYCAAAQTIVTVPENYEYHYWGQGTQVTVSS
As to B8, in assay [2], the “EC50; NFAT luciferase reporter (RLU), whole cell PDL1/PD1 blocking assay” value amounted to 8.3 nM.

B9: 1G12 VHH-Fc (antibody, human IgG1, V domains shown)
VH: QVQLVESGGGVVQPGRSLRLSCAASGGPFMSYAMGWFRQAPGKEREFVAAIRWSGLSTFYADSVKGRFTISRDNSKNTLYLQMNSLRAEDTAVYYCAAAQTIVTVPENYNFDYWGQGTQVTVSS
B9: in assay [3], the “EC50 (read off the curve) … [middle panel]” value is about 1 nM.

B10: 1E4 VHH-Fc (antibody, human IgG1, V domains shown)
VH: QVQLVESGGGVVQPGRSLRLSCAASGGPFMSYAMGWFRQAPGKEREFVAAIRWNGISTFYADSVKGRFTISRDNSKNTLYLQMNSLRAEDTAVYYCAAAQTIVTVPENYEFDYWGQGTQVTVSS
As for B10, the “EC50 (read off the curve) … [top panel]” value in assay [3] was about 2 nM.

B11: 3D5 VHH-Fc (antibody, human IgG1, V domains shown)
VH: QVQLVESGGGVVQPGRSLRLSCAASGGPFMSYAMGWFRQAPGKEREFVAAIRWSGHSTFYADSVKGRFTISRDNSKNTLYLQMNSLRAEDTAVYYCAAAQTISTVPENYEFDYWGQGTQVTVSS
Take B11: in assay [3], the “EC50 (read off the curve) … [middle panel]” value is about 1 nM.

(Values after patent US20250320297A1 (SHANGHAI HENLIUS BIOTECH, published 2025).)
